What was measured:
Test in all cases: EMSA; ~2.5 ug protein, 0.9 pmol probe in 20 uL; 5 mM HEPES-KOH pH 7.6, 30 mM NaCl, 0.2 mM DTT, 0.02 mM EDTA, 0.8 ug salmon sperm DNA, 0.2 ug poly(dI-dC); room temperature 15 min; 4% native PAGE, 0.5x TBE (printed 0.5% w/v), 5% glycerol, pH 8.3, 4 C
Details in all cases: protein: recombinant; tags: N-terminal MBP (pMAL-c2x); chain copies: 2; label: 3'-biotin; blunt
[1] = target: AcNAC3 DNA-binding domain (Actinidia chinensis, UniProt A0A075EC91 1-182)
[2] = target: AcNAC4 DNA-binding domain (Actinidia chinensis, UniProt A0A075ECR2 1-182)
[3] = target: AcNAC2 DNA-binding domain (Actinidia chinensis, UniProt A0A075EAR8 1-182)
[4] = target: AcNAC1 DNA-binding domain (Actinidia chinensis, UniProt A0A075EB52 1-182)
Chain of AcNAC1 DNA-binding domain (A0A075EB52 entry or part of it): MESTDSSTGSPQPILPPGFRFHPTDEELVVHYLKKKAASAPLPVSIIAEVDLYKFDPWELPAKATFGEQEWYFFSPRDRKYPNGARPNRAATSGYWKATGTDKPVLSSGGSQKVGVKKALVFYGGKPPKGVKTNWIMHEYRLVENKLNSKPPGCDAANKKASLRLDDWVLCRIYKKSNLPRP

Chain of AcNAC3 DNA-binding domain (A0A075EC91 entry or part of it): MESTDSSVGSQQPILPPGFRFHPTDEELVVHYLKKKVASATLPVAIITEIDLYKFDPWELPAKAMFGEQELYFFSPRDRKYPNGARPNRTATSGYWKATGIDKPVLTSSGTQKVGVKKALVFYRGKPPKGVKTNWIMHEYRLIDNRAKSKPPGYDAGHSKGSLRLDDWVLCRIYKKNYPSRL
Chain of AcNAC4 DNA-binding domain (A0A075ECR2 entry or part of it): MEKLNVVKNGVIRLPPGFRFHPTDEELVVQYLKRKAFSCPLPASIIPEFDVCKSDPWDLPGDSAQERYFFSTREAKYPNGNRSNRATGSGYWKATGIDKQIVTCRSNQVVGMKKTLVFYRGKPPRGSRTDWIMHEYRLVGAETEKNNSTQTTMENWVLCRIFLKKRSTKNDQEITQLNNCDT
Chain of AcNAC2 DNA-binding domain (A0A075EAR8 entry or part of it): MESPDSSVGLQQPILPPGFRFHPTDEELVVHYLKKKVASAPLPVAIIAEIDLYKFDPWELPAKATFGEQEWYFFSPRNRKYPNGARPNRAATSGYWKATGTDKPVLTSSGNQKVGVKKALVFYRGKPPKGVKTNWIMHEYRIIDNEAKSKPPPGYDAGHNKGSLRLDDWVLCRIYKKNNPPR

| Binder | binding result [1] | binding result [2] | binding result [3] | binding result [4] |
| --- | --- | --- | --- | --- |
| AcACS1 probe N1MUT (Mut) (dsDNA) DNA 1: CATCGATCCATCTGTCAACCACATAAC DNA 2: GTTATGTGGTTGACAGATGGATCGATG | no binding | no binding | no binding | no binding |
| AcACS1 probe N1 (Wt) (dsDNA) DNA 1: CATTATACGTATAGTCAACCACATAAC DNA 2: GTTATGTGGTTGACTATACGTATAATG | binds | binds | binds | binds |

From article PMC8425125, “Regulation of wound ethylene biosynthesis by NAC transcription factors in kiwifruit”
